Results as given in patent US20140322218A1 (Amgen, published 2014).
Positions count from the first letter of the chain named. Names may count otherwise.

T1: Cyno Cadherin-19 (cynomolgus monkey (Macaca fascicularis), UniProt Q9H159 44-772 (human entry))
T1 construct: also called cyno CDH19; cynomologous CDH-19
T1 chain: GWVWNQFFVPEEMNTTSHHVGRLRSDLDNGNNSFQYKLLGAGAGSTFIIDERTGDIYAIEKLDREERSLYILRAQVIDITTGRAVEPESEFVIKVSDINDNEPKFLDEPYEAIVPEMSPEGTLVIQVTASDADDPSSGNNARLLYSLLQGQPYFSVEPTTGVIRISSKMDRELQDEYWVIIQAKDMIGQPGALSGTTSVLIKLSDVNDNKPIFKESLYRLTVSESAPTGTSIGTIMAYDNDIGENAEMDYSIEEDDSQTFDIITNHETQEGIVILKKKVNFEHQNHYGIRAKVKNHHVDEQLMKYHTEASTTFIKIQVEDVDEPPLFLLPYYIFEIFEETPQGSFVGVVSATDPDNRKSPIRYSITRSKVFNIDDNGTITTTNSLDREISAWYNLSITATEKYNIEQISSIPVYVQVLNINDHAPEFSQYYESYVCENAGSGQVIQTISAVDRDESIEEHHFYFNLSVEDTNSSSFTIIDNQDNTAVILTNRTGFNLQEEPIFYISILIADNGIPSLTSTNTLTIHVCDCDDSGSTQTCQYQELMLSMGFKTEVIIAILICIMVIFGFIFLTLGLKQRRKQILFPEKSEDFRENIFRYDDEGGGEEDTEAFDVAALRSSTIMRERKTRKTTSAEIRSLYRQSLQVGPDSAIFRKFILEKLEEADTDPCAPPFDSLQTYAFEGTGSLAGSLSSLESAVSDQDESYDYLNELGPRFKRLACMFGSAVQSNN

T2: muCDH19(1-43)::FLAG::muCDH19(44-770)::huCDH19(271), on 293T cells (mouse/human chimera)
T2 construct: Entry holds leader (1-43), Flag tag and CDH19 part; leader left out; also called Hu EC3a
T2 chain: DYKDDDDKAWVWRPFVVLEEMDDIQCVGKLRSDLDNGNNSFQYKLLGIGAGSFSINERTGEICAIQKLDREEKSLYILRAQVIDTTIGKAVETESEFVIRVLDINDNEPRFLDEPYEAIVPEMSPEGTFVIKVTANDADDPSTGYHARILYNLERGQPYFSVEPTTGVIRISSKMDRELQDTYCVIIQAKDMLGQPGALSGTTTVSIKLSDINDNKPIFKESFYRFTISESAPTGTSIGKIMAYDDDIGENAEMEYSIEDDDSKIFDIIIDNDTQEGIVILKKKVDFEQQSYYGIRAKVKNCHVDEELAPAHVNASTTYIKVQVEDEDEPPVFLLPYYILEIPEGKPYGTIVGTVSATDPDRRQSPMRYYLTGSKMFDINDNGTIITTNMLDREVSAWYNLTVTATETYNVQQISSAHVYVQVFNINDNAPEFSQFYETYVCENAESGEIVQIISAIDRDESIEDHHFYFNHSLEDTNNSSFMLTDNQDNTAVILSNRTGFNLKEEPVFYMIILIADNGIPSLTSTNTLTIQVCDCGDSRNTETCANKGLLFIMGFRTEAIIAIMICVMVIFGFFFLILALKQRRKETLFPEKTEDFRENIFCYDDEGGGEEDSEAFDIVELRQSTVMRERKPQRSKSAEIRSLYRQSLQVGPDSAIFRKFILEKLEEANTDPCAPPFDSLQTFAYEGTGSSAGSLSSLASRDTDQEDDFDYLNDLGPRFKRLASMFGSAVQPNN

T3: rhCDH19(1-43)::FLAG::rhCDH19(44-141)::raCDH19(140-247)::rhCDH19(250-772), on 293T cells (rhesus macaque/rat chimera, UniProt Q9H159 44-772 (human entry))
T3 construct: Entry holds leader (1-43), Flag tag and CDH19 part; leader left out; also called ra EC2 (rhesus backbone)
T3 chain: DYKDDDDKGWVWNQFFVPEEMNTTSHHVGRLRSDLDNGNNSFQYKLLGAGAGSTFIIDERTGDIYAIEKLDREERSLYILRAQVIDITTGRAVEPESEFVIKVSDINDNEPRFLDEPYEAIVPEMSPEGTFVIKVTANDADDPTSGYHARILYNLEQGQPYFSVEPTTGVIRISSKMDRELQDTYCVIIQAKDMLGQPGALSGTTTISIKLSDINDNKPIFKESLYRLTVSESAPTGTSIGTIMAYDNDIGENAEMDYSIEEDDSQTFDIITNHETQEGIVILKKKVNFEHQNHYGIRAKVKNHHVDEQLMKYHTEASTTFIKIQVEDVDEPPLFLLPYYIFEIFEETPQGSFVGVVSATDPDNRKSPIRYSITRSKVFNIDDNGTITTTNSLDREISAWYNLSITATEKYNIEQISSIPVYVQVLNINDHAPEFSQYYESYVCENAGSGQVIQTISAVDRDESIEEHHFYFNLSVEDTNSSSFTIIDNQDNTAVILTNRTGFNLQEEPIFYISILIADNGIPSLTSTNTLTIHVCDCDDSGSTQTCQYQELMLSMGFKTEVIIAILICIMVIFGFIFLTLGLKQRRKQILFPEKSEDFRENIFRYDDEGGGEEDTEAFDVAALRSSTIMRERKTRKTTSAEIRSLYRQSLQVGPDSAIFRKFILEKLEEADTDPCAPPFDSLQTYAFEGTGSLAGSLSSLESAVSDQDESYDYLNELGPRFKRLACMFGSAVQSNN

B1: anti-CDH19 antibody 4A2 (Ab ID 13592) (antibody, human IgG1, kappa, V domains shown)
VH: QVQLQESGPGLVKPSQTLSLTCTVSGGSISSSGYYWSWIRQHPGKGLEWIGYIYYTGSAYYNPSLKSRVTISVDTSKNQFSLKLSSVTAADTAVYYCARDGSSGWYFQYWGQGTLVTVSS
VL: EIVLTQSPGTLSLSPGERATLSCRASRNISSSYLAWYQQKPGQAPRLLIYGPSSRATGIPDRFSGSGSGTDFTLTISRLEPEDFTVYYCQQYGSSFTFGPGTKVDIKR
B2: hu anti-<huCDH19> 4B10 VH::huIgG1z / 4B10 VL::huKLC (Ab ID 13590) (antibody, V domains shown)
VH: QVQLVESGGGVVQPGRSLRLSCAASGFTFSSYDMHWVRQAPGKGLEWVAVISYDGTNEYYADSVKGRFTISRDTSKNTLYLQMNSLRAEDTAVYYCARERYFDWSFDYWGQGTLVSVSS
VL: EIVLTQSPGTLSLSPGERATLSCRASQSVSNTYLAWYHQRPGQAPRLLIYGASSRATGIPDRFSGSGSGTDFALTISSLEPEDFAVYYCQQYSNSWTFGQGTKVEIKR
B3: anti-CDH19 antibody 2G6 (Ab ID 13588) (antibody, human IgG1, lambda, V domains shown)
VH: QVQLVESGGGVVQPGRSLRLSCAASGFTFSSYGMHWVRQAPGKGLEWVAFIWYDGSNKYYADSVKDRFTISRDNSKNTLYLQMKSLRAEDTAVYYCARRAGIIGTIGYYYGMDVWGQGTTVTVSS
VL: SYELTQPPSVSVSPGQTASITCSGDRLGEKYTCWYQQRPGQSPLLVIYQDTKRPSGIPERFSGSNSGNTATLTISGTQAMDEADYYCQAWDSSTVVFGGGTKLTVLG
B4: hu anti-<huCDH19> 4A9 VH::huIgG1z / 4A9 VL::huLLC-C1 (Ab ID 13589) (antibody, V domains shown)
VH: QVQLQESGPGLVKPSETLSLTCTVSGGSISGYYWSWIRQPPGKGLEWFAYFSYSGSTNYNPSLKSRVTLSVDTSKNQFSLKLSSVTAADTAVYYCARNWAFHFDFWGQGTLVTVSS
VL: QSVLTQPPSVSGAPGQRVTISCTGSSSNIGTGYAVHWYQQFPGTAPKLLIYGNNNRPSGVPDRFSGSKSGTSASLAITGLQAEDEADYYCQSYDSRLSGWVFGGGTKLTVLG
notes: Recombinant fully human IgG1
B5: hu anti-<huCDH19> 26D1.1 VH::huIgG1z / 26D1.1 VL::huLLC-C2 (Ab ID 13882) (antibody, V domains shown)
VH: QVQLVQSGAEVKKPGASVKVSCKASRYTFTSYYMSWVRQAPGQGLEWMGIIHPSGGDTTYAQKFQGRVTMTGDTSTSTVYMELSSLRSEDTAVYYCARGGIKLWLHFDYWGQGTLVTVSS
VL: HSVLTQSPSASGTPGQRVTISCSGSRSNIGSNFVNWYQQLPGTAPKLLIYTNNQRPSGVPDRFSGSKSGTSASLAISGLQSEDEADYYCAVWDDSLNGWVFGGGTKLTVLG
B6: hu anti-<huCDH19> 25F8.1 (1-469)(F90Y) VH::huIgG1z / 25F8.1 (1-235)(K45Q,S102A,D111E) VL::huLLC-C2 (Ab ID 14096) (antibody, V domains shown)
VH: B5 VH with R26G, M34I, S35H, H52N, D57S, T59R, G72R, K102Q
VL: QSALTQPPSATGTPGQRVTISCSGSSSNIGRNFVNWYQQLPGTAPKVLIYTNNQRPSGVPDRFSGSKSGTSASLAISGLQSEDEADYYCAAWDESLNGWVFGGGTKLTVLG
notes: Engineered variant of 25F8

Molecular target: T1, Cyno Cadherin-19
Assay: FACS, recombinant cyno CDH19

Row | binding result | Binder
1 | binds | B1
2 | binds | B2
3 | binds | B3
4 | binds | B4
5 | binds | B5

Molecular target: T2, muCDH19(1-43)::FLAG::muCDH19(44-770)::hu …
Assay: FACS, transfected 293T

Row | binding result | Binder
6 | no binding (tested: 5 ug/ml) | B2
7 | binds | B3

Molecular target: T3, rhCDH19(1-43)::FLAG::rhCDH19(44-141)::ra …
Assay: FACS, transfected 293T
Method: The following binding assay was completed in presence of 2 mM CaCl2. […] Cells were then washed one time and the amount of cell associated Alexa647-labelled Ab was quantitated by flow cytometry. The experiments included mock transfected controls.

Row | binding result | Binder
8 | no binding (tested: 5 ug/ml) | B4
9 | no binding (tested: 5 ug/ml) | B6
10 | no binding (tested: 5 ug/ml) | B5
